Patent publication US20150010525A1, “Catalytic Tagging System to Study Macro-Molecular Interactions Using Engineered Ubiquitin Ligase and Ubiquitin-Like Proteins to Facilitate Substrate Identification” (THE REGENTS OF THE UNIVERSITY OF CALIFORNIA, priority 2012, published 2015)

Columns and labels:
[1] = biological target: XIAP (Homo sapiens, UniProt P98170); assay: In vitro PGAM5 ubiquitination assay with XIAP; assay type: biochemical; settings: 50 nM UBE1, 200 nM UbcH5b, 700 nM XIAP, 1.5 μM PGAM5-His6
From the text: FIG. 12 illustrates the identification of the proteolytic form of PGAM5 as an XIAP and cIAP1 substrate in vitro. […] Overall, 15 unique peptides from PGAM5 were recovered and account for 43% of the entire protein sequence. (B) An example of LC-MS/MS spectrum from endogenous PGAM5 N-terminal peptide after subtiligase labeling and positive enrichment. A non-natural amino acid, 2-aminobutyric acid (Abu), is a designed tag showing characteristic labeling by subtiligase. (C) PGAM5 is cleaved into a truncated form in cells. Jurkat cells were transiently transfected with C-terminal Myc tagged full length PGAM5 or PGAM5 (Δ2-24). […] (D) N-terminal amino acid sequence alignment of PGAM5(Δ24) and other known evolutionarily conserved IBM sequences. Reaper, Hid, and Grim are Drosophila proteins that bind DIAP1, the Drosophila IAP. Amino acids are colored according to their chemical properties. (E) XIAP binds PGAM5(Δ24) but not the full length PGAM5. Recombinant GST fused XIAP, PGAM5(FL), and PGAM5(Δ24) were used for in vitro GST pull down experiments. (F) PGAM5(Δ24) binds to XIAP and cIAP1 independent of the RING domain. […] The resins were washed and proteins were eluted and analyzed with SDSPAGE and coomassie blue staining. […] The ubiquitination assay was performed in vitro and PGAM5 is detected with an anti-His antibody. […]

[2] = biological target: T1, GST-XIAP (Homo sapiens, UniProt P98170); assay: In vitro GST pull down; assay type: binding; settings: recombinant proteins
T1 construct: made in house
From the text: FIG. 12 illustrates the identification of the proteolytic form of PGAM5 as an XIAP and cIAP1 substrate in vitro. […] Overall, 15 unique peptides from PGAM5 were recovered and account for 43% of the entire protein sequence. (B) An example of LC-MS/MS spectrum from endogenous PGAM5 N-terminal peptide after subtiligase labeling and positive enrichment. A non-natural amino acid, 2-aminobutyric acid (Abu), is a designed tag showing characteristic labeling by subtiligase. (C) PGAM5 is cleaved into a truncated form in cells. Jurkat cells were transiently transfected with C-terminal Myc tagged full length PGAM5 or PGAM5 (Δ2-24). […] (D) N-terminal amino acid sequence alignment of PGAM5(Δ24) and other known evolutionarily conserved IBM sequences. Reaper, Hid, and Grim are Drosophila proteins that bind DIAP1, the Drosophila IAP. Amino acids are colored according to their chemical properties. (E) XIAP binds PGAM5(Δ24) but not the full length PGAM5. Recombinant GST fused XIAP, PGAM5(FL), and PGAM5(Δ24) were used for in vitro GST pull down experiments. (F) PGAM5(Δ24) binds to XIAP and cIAP1 independent of the RING domain. […] The resins were washed and proteins were eluted and analyzed with SDSPAGE and coomassie blue staining. […] The ubiquitination assay was performed in vitro and PGAM5 is detected with an anti-His antibody.

[3] = system: HeLa cells; assay: Cell viability by CellTiter-Glo after STS treatment; assay type: cell-based; settings: 24 hours after transfection, STS 2 hours
Experimental: FIG. 13 illustrates functional studies of PGAM5 in cells. (A) PGAM5(Δ24) binds XIAP and cIAP1 in vivo. On the left, HEK293 cells were cotransfected with Flag-cIAP1 and PGAM5(FL)-Myc or PGAM5(Δ24)-Myc. Total cell lysates were analyzed by immune-blotting with anti-Flag and anti-Myc antibodies (bottom two panels). Anti-Myc immune-precipitates (IP) were subjected to immunoblot analysis using anti-Myc and anti-Flag antibodies (top two panels). On the right, PGAM5(Δ24)-Myc was transiently expressed in HEK293 cells. 36 hours after transfection, cells were lysed and subjected for Immuno-precipitation with either anti-Myc antibody or an isotype control antibody (mouse IgG). Proteins in the whole cell lysate (bottom three panels) and proteins that bind to the antibody conjugated sepharose beads (top three panels) were assayed with immunoblotting. […] 24 hours after transfection, cell viability was measured by Annexin V staining. […] Error bars represent SEM calculated from triplicate experiments. […] Cell viability is then immediately measured by CellTiter-Glo luminescent assay. […] PGAM5 levels are analyzed with anti-Myc immune-blotting before STS treatment. Error bars represent SEM calculated from triplicate samples.
HeLa cells were plated in 96 well plates and transfected with either empty vector or the PGAM5 construct. […] Luminescent signals were read using a SpectraMax (Molecular Devices) plate reader.

T1 sequence (P98170 whole entry): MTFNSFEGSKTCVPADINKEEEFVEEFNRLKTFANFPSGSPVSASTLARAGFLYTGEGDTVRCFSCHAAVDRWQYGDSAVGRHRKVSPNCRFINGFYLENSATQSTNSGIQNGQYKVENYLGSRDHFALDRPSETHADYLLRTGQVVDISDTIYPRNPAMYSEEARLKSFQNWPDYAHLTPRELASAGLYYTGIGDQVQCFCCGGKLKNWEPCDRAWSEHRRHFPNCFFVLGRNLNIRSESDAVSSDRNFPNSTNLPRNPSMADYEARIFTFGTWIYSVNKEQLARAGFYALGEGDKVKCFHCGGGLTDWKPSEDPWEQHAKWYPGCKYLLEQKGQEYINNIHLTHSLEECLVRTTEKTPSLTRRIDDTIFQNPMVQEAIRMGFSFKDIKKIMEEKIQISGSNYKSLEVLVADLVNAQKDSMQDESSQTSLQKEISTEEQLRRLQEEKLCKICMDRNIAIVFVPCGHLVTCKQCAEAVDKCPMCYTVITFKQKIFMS
XIAP, sequence (P98170 whole entry, the tested form may be a part): as the sequence (P98170 whole entry) above

B1: Serine/threonine-protein phosphatase PGAM5, mitochondrial: phosphoglycerate mutase family member 5, dimeric protein phosphatase (protein, UniProt Q96HS1 1-289, looked up)
chain: MAFRQALQLAACGLAGGSAAVLFSAVAVGKPRAGGDAEPRPAEPPAWAGGARPGPGVWDPNWDRREPLSLINVRKRNVESGEEELASKLDHYKAKATRHIFLIRHSQYHVDGSLEKDRTLTPLGREQAELTGLRLASLGLKFNKIVHSSMTRAIETTDIISRHLPGVCKVSTDLLREGAPIEPDPPVSHWKPEAVQYYEDGARIEAAFRNYIHRADARQEEDSYEIFICHANVIRYIVCRALQFPPEGWLRLSLNNGSITHLVIRPNGRVALRTLGDTGFMPPDKITRS
modifications: full-length
notes: phosphoglycerate mutase family member 5, dimeric protein phosphatase
ubiquitination by XIAP [1]: not the full length protein | binding to XIAP (pull down) [2]: not the full length PGAM5 was pulled down | sensitization to apoptosis inducer STS [3]: sensitized cells to the apoptosis inducer STS
